Positions count from the first letter of the chain named.
Tests used:
[1] = test system: Maize Immature Embryos; test: Selection of Agrobacterium-transformed immature embryos on herbicide-containing medium; assay type: cell-based, Zea mays; conditions: Selection Medium I containing 100 nM R-Haloxyfop acid
Excerpt: Agrobacterium-mediated transformation was used to stably integrate a chimeric gene into the plant genome, and thus generate transgenic maize cells, tissues, and plants that produce AAD1 mRNAs having miRNA target sites within the mRNA. Control tissues having no miRNA target sites in the AAD1 mRNA were also produced. Transformed tissues were selected by their ability to grow on Haloxyfop-or Bialaphos-containing medium.
Callus Selection and Regeneration of Transgenic Events: Following the co-cultivation period, embryos were transferred to Resting Medium (4.33 g/L MS salts; 1× ISU Modified MS Vitamins; 30 g/L sucrose; 700 mg/L L-proline; 3.3 mg/L Dicamba in KOH; 100 mg/L myo-inositol; 100 mg/L Casein Enzymatic Hydrolysate; 15 mg/L AgNO3; 0.5 g/L MES (2-(N-morpholino) ethanesulfonic acid monohydrate; PHYTOTECHNOLOGIES LABR.; Lenexa, K S); 250 mg/L Cefotaxime; and 7.0 gm/L agar; at pH 5.8). No more than 36 embryos were moved to each plate. The plates were wrapped with Micropore™ tape and incubated at 27° C. with continuous light at approximately 50 μmol m^−2s^−1 light intensity for 7 to 10 days. […]

[2] = test system: Maize Immature Embryos; test: Transient AAD1 expression in immature embryos after particle bombardment, ELISA; assay type: cell-based, Zea mays; conditions: 24 hours after particle bombardment; co-bombardment plasmid pDAB112378 (artificial miRNA)
Excerpt: Zea mays embryos from inbred line B104 that express AAD1 mRNAs having miRNA target sites within the mRNA were produced. Control tissues having no miRNA target sites in the AAD1 mRNA, or having no AAD1 gene expression cassette, were also produced. Other control tissues were produced that had only a YFP gene expression cassette (and no AAD1 construct). Preparations of plant transformation DNA molecules constructed as described in EXAMPLE 2 were delivered into maize B104 immature embryos via particle bombardment transformation.
Plasmid DNAs of pDAB112375, pDAB112376, pDAB112377, pDAB113016, pDAB100286, pDAB112378 and pDAB112330 were isolated and purified from Escherichia coli by standard techniques, and diluted in TE buffer (10 mM Tris HCl plus 1 mM EDTA, pH 8) to 1.0 μg/μL.
Embryo isolation and culture: (Day 1) Surface-sterilized B104 immature ears (10 to 12 days post-pollination) were used for the isolation of embryos. Excised immature embryos from 3 to 4 ears were pooled into 2 mL microfuge tubes containing 2.0 mL liquid medium (LS basal medium (Linsmaier and Skoog, (1965) Physiologia Plantarum 18:100-27) containing CHU N6 vitamins (Chu et al. (1975) Scientia Sinica 18:659-68), 700 mg/L L-Proline, 68.5 gm/L sucrose, 36 gm/L D(+) glucose, and 1.5 mg/L 2,4-D). After embryo isolation, the liquid medium was removed and discarded. Embryos were removed and placed onto plates (40 embryos per plate) containing a semi-solid osmotic medium (MS basal medium (Murashige and Skoog, (1962) Physiologia Plantarum 15:473-497), 2 mg/L Glycine, 500 μg/L Thiamine, 500 μg/L Pyroxidine, 50 μg/L Nicotinic Acid., 120 gm/L sucrose, 100 mg/L myo-inositol, and 2.4 gm/L GELRITE). The embryos were arranged in a […] within the target area for particle bombardment. Three replicate plates were prepared for each construct to be tested. All plates were incubated at 28° C. under continuous low light (50 μEm^−2 sec^−1) for 24 hours prior to particle bombardment.
Coating gold particles with DNA: (Day 2) Tubes of frozen gold particles glycerol stock were thawed on ice for a few minutes, then vortexed for 2 minutes at high speed until a uniform gold suspension was produced. Gold suspension was pipetted into sterile microcentrifuge tubes (50 μL each), with an intermediate vortexing of the particle stock between each tube to maintain a uniform suspension. 2.5 μg each of appropriate plasmid DNAs were included. […]
ELISA quantification of AAD1 and PAT proteins: Enzyme Linked Immunosorbant Assays (ELISAs) were used to measure the production of AAD1 and PAT proteins in maize cells and stably-transformed tissues. […]

B1: pDAB112377: Transient construct: ZmUbilv2/AAD1 v3/miR529 perfect target site with miR156 site mutated/ZmPer5 3′UTR (SEQ ID NO:10) (nucleic acid)
DNA: ATGGCTCATGCTGCCCTCAGCCCTCTCTCCCAACGCTTTGAGAGAATAGCTGTCCAGCCACTCACTGGTGTCCTTGGTGCTGAGATCACTGGAGTGGACTTGAGGGAACCACTTGATGACAGCACCTGGAATGAGATATTGGATGCCTTCCACACTTACCAAGTCATCTACTTTCCTGGCCAAGCAATCACCAATGAGCAGCACATTGCATTCTCAAGAAGGTTTGGACCAGTTGATCCAGTGCCTCTTCTCAAGAGCATTGAAGGCTATCCAGAGGTTCAGATGATCCGCAGAGAAGCCAATGAGTCTGGAAGGGTGATTGGTGATGACTGGCACACAGACTCCACTTTCCTTGATGCACCTCCAGCTGCTGTTGTGATGAGGGCCATAGATGTTCCTGAGCATGGCGGAGACACTGGGTTCCTTTCAATGTACACAGCTTGGGAGACCTTGTCTCCAACCATGCAAGCCACCATCGAAGGGCTCAACGTTGTGCACTCTGCCACACGTGTGTTCGGTTCCCTCTACCAAGCACAGAACCGTCGCTTCAGCAACACCTCAGTCAAGGTGATGGATGTTGATGCTGGTGACAGAGAGACAGTCCATCCCTTGGTTGTGACTCATCCTGGCTCTGGAAGGAAAGGCCTTTATGTGAATCAAGTCTACTGTCAGAGAATTGAGGGCATGACAGATGCAGAATCAAAGCCATTGCTTCAGTTCCTCTATGAGCATGCCACCAGATTTGACTTCACTTGCCGTGTGAGGTGGAAGAAAGACCAAGTCCTTGTCTGGGACAACTTGTGCACCATGCACCGTGCTGTTCCTGACTATGCTGGCAAGTTCAGATACTTGACTCGCACCACAGTTGGTGGAGTTAGGCCTGCCCGCTGAGTAGTTAGCTTAATCACCTAGAGCTCGACTCAGGCTGTACTCTCTCTCTTCACAAAGTACTCAGGTAACCTTTAAACTGAGGGCACTGAAGTCGCTTGATGTGCTGAATTGTTTGTGATGTTGGTGGCGTATTTTGTTTAAATAAGTAAGCATGGCTGTGATTTTATCATATGATCGATCTTTGGGGTTTTATTTAACACATTGTAAAATGTGTATCTATTAATAACTCAATGTATAAGATGTGTTCATTCTTCGGTTGCCATAGATCTGCTTATTTGACCTGTGATGTTTTGACTCCAAAAACCAAAATCACAACTCAATAAACTCATGGAATATGTCCACCTGTTTCTTGAAGAGTTCATCTACCATTCCAGTTGGCATTTATCAGTGTTGCAGCGGCGCTGTGCTTTGTAACATAACAATTGTTACGGCATATATCCAA
modifications: expression cassette; (969)..(1333) ZmPer5 3′UTR
fate of transformed embryos on Haloxyfop-containing medium [1]: grew on Haloxyfop-containing medium and regenerated transgenic plants
Mean AAD1 Amount [2]: 249 ng/mL

B2: pDAB112376: Transient construct: ZmUbilv2/AAD1 v3/WT miR529 target site with miR156 site mutated/ZmPer5 3′UTR (SEQ ID NO:9) (nucleic acid)
DNA: B1 DNA with C937T, T938A
modifications: pDAB112377 expression cassette; (918)..(954) modified tsh4 target site; (969)..(1333) ZmPer5 3′UTR
fate of transformed embryos on Haloxyfop-containing medium [1]: grew on Haloxyfop-containing medium and regenerated transgenic plants
Mean AAD1 Amount [2]: 317 ng/mL

From patent publication US12649925B2, “Tissue-specific expression and hybrid plant production” (Dow AgroSciences LLC, priority 2013, dated 2026)
